Paper PMC6602975

Target: H4K16ac nucleosome
Assay: EMSA
Conditions: chain shown with the change

Kd: 810 nM
B1: Sir3 BAH domain (construct 1–214), P06701 D205N (protein)
chain: MAKTLKDLDGWQVIITDDQGRVIDDNNRRRSRKRGGENVFLKRISDGLSFGKGESVIFNDNVTETYSVYLIHEIRLNTLNNVVEIWVFSYLRWFELKPKLYYEQFRPDLIKEDHPLEFYKDKFFNEVNKSELYLTAELSEIWLKDFIAVGQILPESQWNDSSIDKIEDRDFLVRYACEPTAEKFVPIDIFQIIRRVKEMEPKQSNEYLKRVSVP
